This is an account of results in publication PMC4635314, “Insights into Collagen Uptake by C-type Mannose Receptors from the Crystal Structure of Endo180 Domains 1–4” (Structure(London, England:1993), 2015).

Experiment [1] addresses T1, type I collagen (native, triple-helical; rat tail) (rat, UniProt P02454 152-1207; P02466 86-1125).
T1 construct: collagen alpha-1(I) chain, rat; collagen alpha-2(I) chain, rat; also called native collagen; rat-tail type I collagen; source: bought: Sigma (rat-tail type I collagen)
The experiment can be described thus: ELISA; solid-phase binding assay: collagen or gelatin coated at 10 μg/ml on Nunc MaxiSorp plates; Fc-tagged Endo180 proteins in PBS with 0.1 mg/ml κ-casein and 0.05% Tween 20 added for 2 hr (titration, or fixed 1 μM in Figure 6A); detected with anti-human IgG-HRP, 492 nm; single-site fit. The settings on record: both partners purified. A general note: ELISA stands for enzyme-linked immunosorbent assay.

For experiment [2], the target named is T2, gelatin (heat-denatured rat-tail type I collagen) (rat, UniProt P02454 152-1207; P02466 86-1125).
T2 construct: collagen alpha-1(I) chain, rat, heat-denatured; collagen alpha-2(I) chain, rat, heat-denatured; Same chains as m3 but denatured (unfolded single chains) before coating or coupling; also called denatured collagen; source: bought: Sigma (rat-tail type I collagen), 1 mg/ml in 100 mM acetic acid heated to 67°C for 30 min
The description is as above. To be noted: both partners purified.

T2 sequence (P02454 152-1207, chain 1 of 2): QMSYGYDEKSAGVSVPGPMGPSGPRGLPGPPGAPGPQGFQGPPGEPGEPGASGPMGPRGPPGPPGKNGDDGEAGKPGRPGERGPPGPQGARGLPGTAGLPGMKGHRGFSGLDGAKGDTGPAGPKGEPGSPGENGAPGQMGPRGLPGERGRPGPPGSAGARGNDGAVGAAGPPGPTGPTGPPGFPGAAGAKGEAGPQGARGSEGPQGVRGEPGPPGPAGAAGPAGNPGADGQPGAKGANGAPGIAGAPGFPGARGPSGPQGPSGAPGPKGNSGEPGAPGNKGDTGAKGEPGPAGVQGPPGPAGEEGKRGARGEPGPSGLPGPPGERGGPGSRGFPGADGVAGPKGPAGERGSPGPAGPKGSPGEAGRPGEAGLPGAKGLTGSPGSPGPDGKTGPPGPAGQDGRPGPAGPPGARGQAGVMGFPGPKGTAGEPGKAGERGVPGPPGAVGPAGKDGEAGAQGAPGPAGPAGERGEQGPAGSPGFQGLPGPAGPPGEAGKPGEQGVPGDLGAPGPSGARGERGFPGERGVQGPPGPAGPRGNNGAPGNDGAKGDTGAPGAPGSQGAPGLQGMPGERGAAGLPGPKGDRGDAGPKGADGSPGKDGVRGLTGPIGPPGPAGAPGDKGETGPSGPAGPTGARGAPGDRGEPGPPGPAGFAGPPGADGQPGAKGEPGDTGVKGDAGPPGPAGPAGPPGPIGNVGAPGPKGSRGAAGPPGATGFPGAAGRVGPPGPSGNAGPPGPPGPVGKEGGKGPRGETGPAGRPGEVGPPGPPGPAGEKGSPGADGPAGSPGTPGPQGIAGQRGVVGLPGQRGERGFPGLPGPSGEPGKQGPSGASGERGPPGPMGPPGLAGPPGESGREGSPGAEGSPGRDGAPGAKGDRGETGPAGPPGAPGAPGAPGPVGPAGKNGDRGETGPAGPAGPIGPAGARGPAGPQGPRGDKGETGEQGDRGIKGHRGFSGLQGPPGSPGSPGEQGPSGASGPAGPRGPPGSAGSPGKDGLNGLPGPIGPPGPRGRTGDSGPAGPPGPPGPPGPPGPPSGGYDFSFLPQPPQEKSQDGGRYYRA
T2 sequence (P02466 86-1125, chain 2 of 2): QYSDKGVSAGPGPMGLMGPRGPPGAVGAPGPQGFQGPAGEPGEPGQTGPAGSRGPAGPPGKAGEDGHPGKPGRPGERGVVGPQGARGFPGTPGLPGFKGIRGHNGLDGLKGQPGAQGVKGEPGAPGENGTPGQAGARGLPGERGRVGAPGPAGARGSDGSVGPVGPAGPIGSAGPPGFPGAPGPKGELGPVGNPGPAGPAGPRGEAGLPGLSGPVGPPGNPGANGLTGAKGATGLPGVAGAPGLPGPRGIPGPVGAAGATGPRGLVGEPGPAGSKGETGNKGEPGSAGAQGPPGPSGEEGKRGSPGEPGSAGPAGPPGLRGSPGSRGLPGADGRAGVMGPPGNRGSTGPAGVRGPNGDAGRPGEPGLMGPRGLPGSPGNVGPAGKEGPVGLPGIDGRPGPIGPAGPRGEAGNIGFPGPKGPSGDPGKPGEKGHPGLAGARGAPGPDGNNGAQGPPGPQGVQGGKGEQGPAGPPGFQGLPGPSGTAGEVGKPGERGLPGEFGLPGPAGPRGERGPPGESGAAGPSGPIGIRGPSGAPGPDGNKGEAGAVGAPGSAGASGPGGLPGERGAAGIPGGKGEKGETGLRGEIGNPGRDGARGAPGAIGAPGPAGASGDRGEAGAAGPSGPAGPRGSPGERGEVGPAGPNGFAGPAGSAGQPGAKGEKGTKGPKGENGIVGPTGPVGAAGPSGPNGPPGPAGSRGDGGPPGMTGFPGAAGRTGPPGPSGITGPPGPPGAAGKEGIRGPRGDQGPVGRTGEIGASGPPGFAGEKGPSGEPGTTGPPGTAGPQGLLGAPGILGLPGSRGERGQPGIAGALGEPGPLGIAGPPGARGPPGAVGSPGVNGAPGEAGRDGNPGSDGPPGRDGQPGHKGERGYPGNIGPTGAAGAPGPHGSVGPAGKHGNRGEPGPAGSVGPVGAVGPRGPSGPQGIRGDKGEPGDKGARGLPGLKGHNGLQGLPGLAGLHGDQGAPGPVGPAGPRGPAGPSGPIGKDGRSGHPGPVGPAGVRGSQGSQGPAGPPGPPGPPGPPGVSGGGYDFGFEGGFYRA
T1 sequence (P02454 152-1207, chain 1 of 2): as the sequence (P02454 152-1207, chain 1 of 2) above
T1 sequence (P02466 86-1125, chain 2 of 2): as the sequence (P02466 86-1125, chain 2 of 2) above

B1: Endo180 D3-4-Fc (Fc fusion, human)
chain: APLAKSNDCETFWDKDQLTDSCYQFNFQSTLSWREAWASCEQQGADLLSITEIHEQTYINGLLTGYSSTLWIGLNDLDTSGGWQWSDNSPLKYLNWESDQPDNPSEENCGVIRTESSGGWQNRDCSIALPYVCKKKPNATAEPTPPDRWANVKVECEPSWQPFQGHCYRLQAEKRSWQESKKACLRGGGDLVSIHSMAELEFITKQIKQEVEELWIGLNDLKLQMNFEWSDGSLVSFTHWHPFEPNNFRDSLEDCVTIWGPEGRWNDSPCNQSLPSICKKAGQLSQG
notes: Endo180 (uPARAP), human, domains 3-4 (CTL1, CTL2), residues 231-513 of UniProt Q9UBG0; also called D3-4-Fc construct; source: HEK293 c18, transfected, secreted into serum-free medium, purified (protein A); not shown: Fc (IgG2), C-terminal, kept
As for B1, the figures for the Kd in experiment [1] and in experiment [2] were 3700 ± 430 nM and 2200 ± 150 nM, respectively.

B2: Endo180 D1-4-Fc (dimeric Fc-tagged Endo180 domains 1-4) (Fc fusion)
chain: APLADAALPEPNVFLIFSHGLQGCLEAQGGQVRVTPACNTSLPAQRWKWVSRNRLFNLGTMQCLGTGWPGTNTTASLGMYECDREALNLRWHCRTLGDQLSLLLGARTSNISKPGTLERGDQTRSGQWRIYGSEEDLCALPYHEVYTIQGNSHGKPCTIPFKYDNQWFHGCTSTGREDGHLWCATTQDYGKDERWGFCPIKSNDCETFWDKDQLTDSCYQFNFQSTLSWREAWASCEQQGADLLSITEIHEQTYINGLLTGYSSTLWIGLNDLDTSGGWQWSDNSPLKYLNWESDQPDNPSEENCGVIRTESSGGWQNRDCSIALPYVCKKKPNATAEPTPPDRWANVKVECEPSWQPFQGHCYRLQAEKRSWQESKKACLRGGGDLVSIHSMAELEFITKQIKQEVEELWIGLNDLKLQMNFEWSDGSLVSFTHWHPFEPNNFRDSLEDCVTIWGPEGRWNDSPCNQSLPSICKKAGQLSQG
modifications: natively glycosylated (predicted N-linked sites Asn69, Asn102, Asn140, Asn364, Asn497)
For B2, the Kd in experiment [1] is 2500 ± 250 nM; in experiment [2] it was 420 ± 30 nM.

A word on the Kd: it is the constant that tells how readily two partners part at equilibrium.
